Assays:
mice = assay: Protein in urine after in vivo gene delivery of dynamin mutants into healthy mice (Bradford); design: species or system mouse; conditions: Table 5 Basic Phenotype, podocin-driven vectors
Method: Next, the level of urinary protein loss following gene delivery of dynamin mutants was examined (Table 2). […] The expression of K44A was associated with severe proteinuria (1.18 mg/ml) at peak gene expression time of 10 hours post injection. The reduction in gene expression was paralleled by a reduction in proteinuria (0.77 mg/ml). Gene transfer of dynR725A caused an increase in proteinuria (0.58 mg/ml). Although this was not a significant increase, it is probable that it is a consequence of the partial podocyte FP effacement seen after gene transfer of dynR725A, and due to increase in the stress fibers formation observed in cultured podocytes.
To explore whether functional dynamin is required for the maintenance of FP morphology in healthy kidneys, it was examined whether expression of dominant negative dynK44A disrupts podocyte function. […] In contrast, podocin driven expression of dynK44A, the dynamin mutant that cannot bind GTP, caused FP effacement (FIG. 21B) and proteinuria (1.1±0.26 mg/ml) at the peak of gene expression […] after gene delivery (FIGS. 21D and 25C). […] In other words, tight regulation of the life-time of the GTP-bound form of dynamin appears to be required for normal FP morphology and ultrafiltration.
CatL plasmids encoding short and long CatL (Goulet et al., Biol Chem 387, 1285-1293 (2004)), Dyn1 plasmids (pcDNA-driven) or p2.5 Podocin-driven (Moeller et al., Genesis 35, 39-42 (2003)) were introduced into mice (n>10, each construct) using the TransIT in vivo gene delivery system according to the manufacturer's instruction (Mirus Bio Corporation, Madison, Wis.). 10 and 24 h after gene delivery, proteinuria was assessed by Multistix 8 SG strips (Bayer Corporation, Elkhart, Ind.), and Bradford protein assay (Sigma, Saint Louis, Mo.). From the same urines the protein creatinine ratio was determined with Albuwell M and Creatinine Companion protein creatinine ELISA kits (Exocell Inc., Philadelphia, Pa.).

[1] = system: LPS induced mouse proteinuria model; assay: LPS induced mouse proteinuria model, protein in urine (prevention and reversal by dynamin gene delivery); assay type: in vivo; conditions: Table 5 Reversal, 2xLPS
Method: Next, it was examined whether gene transfer of dynR725A and dynL356Q, G358V was able to protect from LPS induced changes of podocyte FP and thus proteinuria (FIGS. 6A-B); (Table 2B). […] Whereas the application of wildtype dynamin was unable to protect from LPS induced podocyte FP effacement (data not shown) and proteinuria (0.63 mg/ml after 24 hours, p<0.05 and 1.18 mg/ml after 48 hours, p<0.04); table 2B, the co-administration of R725A together with LPS completely abolished the development of proteinuria after 24 hours (0.20 mg/ml). Podocyte FPs remained normal at this timepoint (FIG. 6B). The decline of R725A expression in podocytes was then associated with the development of proteinuria (1.25 mg/ml, 48 h). At this time point, there was noticeable podocyte FP effacement. The application of the cathepsin L resistant dynamin mutant L356Q, G358V together with LPS conferred a partial protection from proteinuria (0.47 mg/ml, P<0.05). This protection was associated with normal appearing podocyte FP (FIG. 6C). Although this protection was not as strong as the one provided by dynR725A, it was prolonged and was still present even after the second dose of LPS ([…], P<0.04). This observation argues that lower expression levels of dynL356Q, G358V are required to protect from LPS induced FP effacement but the presence of dynR725A has the most powerful protection.
Another set of experiments was carried out to study whether dynR725A and dynL356Q, G358V are also useful once there is already established podocyte damage and proteinuria (reversal experiments), (FIGS. 6C, D); (Table 2C). First LPS was injected in mice at 0 and 24 hours and the course of urinary protein loss was documented. On the peak phase of proteinuria at 48 hours after the first LPS injection, either delivery solution (control), dynR725A or dynL356Q, G358V dynamin mutants were transferred and the morphology of podocyte FP was analyzed and the degree of proteinuria was determined 10 hours later when there was strong expression of the transferred gene in podocytes. […] A dramatic reformation of podocyte FPs was also observed (FIG. 6C). The same observation was true for L356Q, G358V (FIG. 6D) which was able to reduce proteinuria from 1.20 mg/ml to 0.71 mg/ml). From the in vitro data it was determined that R725A starts to self assemble into higher order structures in the LPS setting which render dynamin assembly domain protected from cathepsin L cleavage. […] In addition, dominant activating dynR725A proves useful because despite causing podocyte damage in wildtype mice, it can resist cathepsin L cleavage by self assembly in the LPS setting and have strong activity by impairment in its GTP hydrolysis.
If dynamin is a target of CatL, then dynL356Q and dynR725A, which are resistant to CatL cleavage, might protect kidneys from LPS. In control mice, two injections of LPS led to FP effacement (FIG. 21C) and a large increase in proteinuria (FIG. 21E, Con).
Next it was examined whether dynL356Q and dynR725A can reverse already established proteinuria. LPS was injected into mice at 0 and 24 hours. At the peak of proteinuria at 48 hours, mice were injected with dynWT, dynL356Q, or dynR725A, and the degree of proteinuria was analyzed 12 hours post injection. […] The rescue could be achieved with both podocin and CMV-driven protein expression.
All animal studies were approved by the MGH Subcommittee for Research Animal Care. C57BL6 mice were obtained from Jackson Laboratory (Bar Harbor, Me.). CatL−/− mice are in a pure C57BL6 background (Nakagawa et al., Science 280, 450-453 (1998)). LPS induced mouse proteinuria model was utilized as previously described (Reiser et al., J Clin Invest 113, 1390-1397 (2004)). Rat PAN nephrosis model was induced by a single intravenous injection of PAN (180 mg/kg body wt; Sigma-Aldrich, St. Louis, Mo.) (Kim et al., Am J Physiol Renal Physiol 286, F922-935 (2004)). […]

Row | Molecule | Protein in the urine (mice; t = 0) | Protein in the urine (mice; t = 14 h) | Protein in the urine (mice; t = 24 h) | Protein in the urine ([1]; t = 0) | Protein in the urine ([1]; t = 48 h) | Protein in the urine ([1]; t = 58 h)
1 | R725A (podo): podocin promoter-driven dynR725A vector, gene delivery (protein, UniProt Q05193 1-864, looked up, variant R725A, podocin promoter vector, podocin promoter-driven dynR725A vector, gene delivery) Dynamin-1: MGNRGMEDLIPLVNRLQDAFSAIGQNADLDLPQIAVVGGQSAGKSSVLENFVGRDFLPRGSGIVTRRPLVLQLVNATTEYAEFLHCKGKKFTDFEEVRLEIEAETDRVTGTNKGISPVPINLRVYSPHVLNLTLVDLPGMTKVPVGDQPPDIEFQIRDMLMQFVTKENCLILAVSPANSDLANSDALKVAKEVDPQGQRTIGVITKLDLMDEGTDARDVLENKLLPLRRGYIGVVNRSQKDIDGKKDITAALAAERKFFLSHPSYRHLADRMGTPYLQKVLNQQLTNHIRDTLPGLRNKLQSQLLSIEKEVEEYKNFRPDDPARKTKALLQMVQQFAVDFEKRIEGSGDQIDTYELSGGARINRIFHERFPFELVKMEFDEKELRREISYAIKNIHGIRTGLFTPDMAFETIVKKQVKKIREPCLKCVDMVISELISTVRQCTKKLQQYPRLREEMERIVTTHIREREGRTKEQVMLLIDIELAYMNTNHEDFIGFANAQQRSNQMNKKKTSGNQDEILVIRKGWLTINNIGIMKGGSKEYWFVLTAENLSWYKDDEEKEKKYMLSVDNLKLRDVEKGFMSSKHIFALFNTEQRNVYKDYRQLELACETQEEVDSWKASFLRAGVYPERVGDKEKASETEENGSDSFMHSMDPQLERQVETIRNLVDSYMAIVNKTVRDLMPKTIMHLMINNTKEFIFSELLANLYSCGDQNTLMEESAEQAQRADEMLRMYHALKEALSIIGDINTTTVSTPMPPPVDDSWLQVQSVPAGRRSPTSSPTPQRRAPAVPPARPGSRGPAPGPPPAGSALGGAPPVPSRPGASPDPFGPPPQVPSRPNRAPPGVPSRSGQASPSRPESPRPPFDL | 0.29 ± 0.10 mg/mL | 0.79 ± 0.22 (4.4 × 10^−5) mg/ml | 0.45 ± 0.18 (3.6 × 10^−2) mg/ml | 0.23 ± 0.07 mg/mL | 1.26 ± 0.34 mg/mL | 0.49 ± 0.23 (1.6 × 10^−4) mg/ml
2 | K44A (podo): podocin promoter-driven dynK44A vector, gene delivery (protein, UniProt Q05193 1-864, looked up, variant K44A, podocin promoter vector, podocin promoter-driven dynK44A vector, gene delivery) Dynamin-1: MGNRGMEDLIPLVNRLQDAFSAIGQNADLDLPQIAVVGGQSAGASSVLENFVGRDFLPRGSGIVTRRPLVLQLVNATTEYAEFLHCKGKKFTDFEEVRLEIEAETDRVTGTNKGISPVPINLRVYSPHVLNLTLVDLPGMTKVPVGDQPPDIEFQIRDMLMQFVTKENCLILAVSPANSDLANSDALKVAKEVDPQGQRTIGVITKLDLMDEGTDARDVLENKLLPLRRGYIGVVNRSQKDIDGKKDITAALAAERKFFLSHPSYRHLADRMGTPYLQKVLNQQLTNHIRDTLPGLRNKLQSQLLSIEKEVEEYKNFRPDDPARKTKALLQMVQQFAVDFEKRIEGSGDQIDTYELSGGARINRIFHERFPFELVKMEFDEKELRREISYAIKNIHGIRTGLFTPDMAFETIVKKQVKKIREPCLKCVDMVISELISTVRQCTKKLQQYPRLREEMERIVTTHIREREGRTKEQVMLLIDIELAYMNTNHEDFIGFANAQQRSNQMNKKKTSGNQDEILVIRKGWLTINNIGIMKGGSKEYWFVLTAENLSWYKDDEEKEKKYMLSVDNLKLRDVEKGFMSSKHIFALFNTEQRNVYKDYRQLELACETQEEVDSWKASFLRAGVYPERVGDKEKASETEENGSDSFMHSMDPQLERQVETIRNLVDSYMAIVNKTVRDLMPKTIMHLMINNTKEFIFSELLANLYSCGDQNTLMEESAEQAQRRDEMLRMYHALKEALSIIGDINTTTVSTPMPPPVDDSWLQVQSVPAGRRSPTSSPTPQRRAPAVPPARPGSRGPAPGPPPAGSALGGAPPVPSRPGASPDPFGPPPQVPSRPNRAPPGVPSRSGQASPSRPESPRPPFDL | 0.24 ± 0.08 mg/mL | 1.09 ± 0.27 (3.0 × 10^−5) mg/ml | 0.42 ± 0.16 (5.2 × 10^−3) mg/ml | – | – | –
3 | WT (podo): podocin promoter-driven wild type dyn1 vector, gene delivery (protein, UniProt Q05193 1-864, looked up, podocin promoter vector, podocin promoter-driven wild type dyn1 vector, gene delivery) Dynamin-1: MGNRGMEDLIPLVNRLQDAFSAIGQNADLDLPQIAVVGGQSAGKSSVLENFVGRDFLPRGSGIVTRRPLVLQLVNATTEYAEFLHCKGKKFTDFEEVRLEIEAETDRVTGTNKGISPVPINLRVYSPHVLNLTLVDLPGMTKVPVGDQPPDIEFQIRDMLMQFVTKENCLILAVSPANSDLANSDALKVAKEVDPQGQRTIGVITKLDLMDEGTDARDVLENKLLPLRRGYIGVVNRSQKDIDGKKDITAALAAERKFFLSHPSYRHLADRMGTPYLQKVLNQQLTNHIRDTLPGLRNKLQSQLLSIEKEVEEYKNFRPDDPARKTKALLQMVQQFAVDFEKRIEGSGDQIDTYELSGGARINRIFHERFPFELVKMEFDEKELRREISYAIKNIHGIRTGLFTPDMAFETIVKKQVKKIREPCLKCVDMVISELISTVRQCTKKLQQYPRLREEMERIVTTHIREREGRTKEQVMLLIDIELAYMNTNHEDFIGFANAQQRSNQMNKKKTSGNQDEILVIRKGWLTINNIGIMKGGSKEYWFVLTAENLSWYKDDEEKEKKYMLSVDNLKLRDVEKGFMSSKHIFALFNTEQRNVYKDYRQLELACETQEEVDSWKASFLRAGVYPERVGDKEKASETEENGSDSFMHSMDPQLERQVETIRNLVDSYMAIVNKTVRDLMPKTIMHLMINNTKEFIFSELLANLYSCGDQNTLMEESAEQAQRRDEMLRMYHALKEALSIIGDINTTTVSTPMPPPVDDSWLQVQSVPAGRRSPTSSPTPQRRAPAVPPARPGSRGPAPGPPPAGSALGGAPPVPSRPGASPDPFGPPPQVPSRPNRAPPGVPSRSGQASPSRPESPRPPFDL | 0.28 ± 0.06 mg/mL | 0.54 ± 0.13 (4.2 × 10^−3) mg/ml | 0.46 ± 0.16 (4.6 × 10^−2) mg/ml | – | – | –

Reference: US9144594B2, “Cathepsin L mediated diseases and associated methods and products” (University of Miami, priority 2005, dated 2015)
